# Key:
# Assay in all cases: BLI, IgG
# [1] = molecular target: RSV prefusion F (preF), subtype A (respiratory syncytial virus, subtype A, UniProt P03420 26-513)
# [2] = molecular target: RSV prefusion F (preF), subtype B (respiratory syncytial virus, subtype B)
# [3] = molecular target: T1, RSV postfusion F (postF), subtype A (respiratory syncytial virus, subtype A, UniProt P03420 26-513)
# T1 construct: also called F ΔFP; Postfusion subtype A
Binder,Kd [1] [nM],Kd [2] [nM],Kd [3] [nM],binding result [3],binding result [1]
"ADI-14408 (antibody, V domains shown, also called Ab 74) VH: QVQLVQSGPALVKTTQTLTLTCTFSGFSLTTSGMCVSWIRQPPGKALEWLARIDWDDDKYYSTSLKTRLTISKDTSKNQVVLTLTNVDPVDTATYYCARMQKYDSSGYYLHYFDSWGQGTLVTVSS VL: DIRLTQSPSSLSASVGDRVTIACRASQSISSYLNWYQQKPGKSPKVLIYAASILQTGVPSRFSGSGSGTDFTLTISSLQPEDFATYYCQQSYSINQYTFGQGTKVEIK",8.53,12.8,2.14,–,–
"ADI-21041 (antibody, V domains shown) VH: EVQLVESGGVVVQPGGSLRLSCAASGFTFDDYTMHWVRQAPGKGLEWVSLISWVGDTTYYADSVKGRFTISRDNSKNSLYLQMNSLRTEDTALYYCAKGGYYDGSGYYYFDYWGQGTLVTVSS VL: DIRLTQSPSSLSASVGDRVTITCRASQSISNYLNWYQQKPGKAPKLLMYAASSLQSGVPSRFSGSGSGTDFTLTISSLQPEDFATYSCQQSYSTPYTFGQGTKVEIK",7.3,–,–,no binding,–
"ADI-14420 (antibody, V domains shown, also called Ab 86) VH: EVQLVESGGVVVQPGGSLRLSCAASGFNFDDYAMHWVRQAPGKGLEWVSLISWDGGNTYYSDSVKGRFTISRDNGKNSLYLQMNSLRAEDTALYYCAKDIDRYSGYDYVFHYWGQGTLVTVSS VL: DIRLTQSPSTLSAYVGDRVTITCRASQSISSWLAWYQQKPGKAPKLLIYKASSLESGVPSRFTGSGSGTEFTLTISGLQPDDFATYYCQQYNSYSTFGGGTKVDIK",6.35,4.32,–,no binding,–
"ADI-14576 (antibody, V domains shown) VH: QVQLVQSGAEVKKPGASVKVSCKASGYTFTSYGISWVRQAPGQGLEWMGWISAYNGNTNYAQKLQGRVTMTTDTSTSTAYMELRSLRSDDTAVYYCARDPPVIAAGDFQHWGQGTLVTVSS VL: DIVLTQSPLSLPVTLGQPASISCRSSQSLVHSDGNTYLNWFQQRPGQSPRRLIYKVSNRDSGVPDRFSGSGSGTDFTLKISRVEAEDVGVYYCMQGTHWPPDFGQGTRLEIK",6.97,19.3,–,no binding,–
"ADI-14401 (antibody, V domains shown, also called Ab 67) VH: QVQLVQSGGGLVKPGGSLRLSCAASGFTFSSYSMHWVRQAPGKGLEWVSSISASSSYLNYADSVKGRFTISRDNAKKSLYLQLNTLRADDTAVYYCAREDHDSGTYYLNWFDPWGQGTLVTVSS VL: QSVVTQPPSVSGAPGQRVTISCTGSSSNIGAGYDVHWYQQFPGTGPKLLIYGNSHRPSGVPDRFSGSKSGPSASLAITGLQAEDEADYYCQSYDSSLSGYVFGTGTKVTVL",1.19,2.17,–,no binding,–
"ADI-14422 (antibody, V domains shown, also called Ab 88) VH: QVQLVQSGAEVKKPGSSVKVSCKASGGTFSSYTINWVRQAPGQGLEWMGRIIPILGIANYAQKFQGRVTITADKSTSTAYMELSSLRSEDTAVYYCARRHQDTYGMDVWGQGTTVTVSS VL: QSVLTQPPSVSGAPGQRVTISCTGSSSNIGAGYDVHWYQQLPGTAPKLLIYGNSNRPSGVPDRFSGSKSGTSASLAITGLQAEDEADYYCQSYDSSLSGSVFGGGTKVTVL",11.4,33.9,4.76,–,–
"ADI-14396 (antibody, V domains shown, also called Ab 63) VH: EVQLVESGGGVVQPGRSLRLSCAASGFTFSSYAMHWVRQAPGKGLEWVAVISYDGSNKYYADSVKGRFTISRDNSKNTLYLQMNSLRAEDTAVYYCARELRYFDWEYGGMDVWGQGTTVTVSS VL: EIVLTQSPSSLSASVGDRVTITCQASQDISNYLNWYQQKPGKAPKLLIYDASNLETGVPSRFSGSGSGTDFTFTISSLQPEDIATYYCQQYDNLPMYTFGQGTKLEIK",–,15.5,–,no binding,no binding
"ADI-14400 (antibody, V domains shown, also called Ab 66) VH: QVQLVQSGGGVVQPGRSLRLSSAASGFTFSSYAMHWVRQAPGKGLEWVAVISHDGSKYYADSVKGRFTISRDNSKSTLNLQMNSLRPEDTAVYYCARGGDVRLYDDSNGYHYDTYYFDYWGQGTLVTVSS VL: EIVLTQSPSSLSASVGDRVTITCRASQGIRNDLGWYQQKPGKAPKLLIYAASTLQSGVPSRFSGSGSGTDFTLTISSLQPEDFATYYCLQDYNYPLTFGGGTKVEIK",0.29,0.451,–,no binding,–
"ADI-14407 (antibody, V domains shown, also called Ab 73) VH: QVQLVQSGGGVVQPGRSLRLSCAASGFTFSSYGMHWVRQAPGKGLEWVAVIWFDGNNKEYADSVKGRFAISRDNSKNTLYLQMNSLRAEDTAVYYCARDLIPVTIFGVVNPYSYYGMDVWGQGTTVTVSS VL: EIVMTQSPSSLSASVGDRVTITCRASQSISTYLNWYQQKPGTAPKLLIYAASSLESGVPSRLSGSGSGTEFILTISSLQREDFATYYCQQSYSTPPTFGQGTKVEIK",6.28,11.4,0.378,–,–
"ADI-14415 (antibody, V domains shown, also called Ab 81) VH: EVQLVESGPGLVKPSETLSLTCTVSGGSISNYYWTWIRQPPGEGLEWIGYIYYTGSTNYNPSLKNRVTISVDTPKNQFSLKLNSVTAADTAVYYCARGWGYSYGYESYYNGLDVWGQGTTVTVSS VL: DIQLTQSPSFLSASVGDRVTITCRASQGISSYLAWYQLKPGKAPKLLIYAAATLETGVPSRFSGSGSGTEFTLTISGLQPEDFATYYCQQLNSFPFTFGPGTKVEIK",4.2,3.51,–,no binding,–
"ADI-14399 (antibody, V domains shown, also called Ab 65) VH: EVQLLESGPGLVKPSQTLSLTCAVSGGSINSGRYSWSWIRQPPGKGLEWIGYIYYSGTTYYNPSLESRVTISRDTSKNQFSLNLSSVTAADTAVYYCARTNSADSYASGSHYIRPQYFDFWGQGTLVTVSS VL: DIQLTQSPATLSLSPGERATLSCRASQSVSSYLAWYQQKPGQAPRLLIYGASNRATGIPARFSGSGSGTDFTLTISRLEPEDFAVYYCQQRSNWLTFGGGTKVEIK",0.189,0.365,–,no binding,–
"ADI-14413 (antibody, V domains shown, also called Ab 79) VH: EVQLVESGGVVVQPGGSLRLSCAASGFNFDDYSMHWVRQAPGKGLEWVSVISWDGGITYYADSVKGRFTMSRDNGKKSLYLQMNSLRTEDTAVYYCGKDGDIYSSSSAGIDYWGQGTLVTVSS VL: SYVLTQPPSASGTPGQRVIISCSGSSSNIGSHTVKWYQQLPGTAPKLLIDRNNQRPSGVPDRFSGPKSGTSASLAISGLQSEDEADYYCASWDDSLNGPVFGGGTQLTVL",5.45,2.71,–,no binding,–
"ADI-14426 (antibody, V domains shown, also called Ab 92) VH: EVQLVESGGGVVQPGRSLRLSCAASGFTFSSFPMHWVRQAPGKGLEWVAVASYDGRNNYYAGSVKGRFTISRDNSKNTLYLQINSLRAEDTAVYYCAREVVIAAHFDYWGQGTLVTVSS VL: SSELTQEPAVSVALGQTVRITCQGDSLRSFYANWYQQKPGQAPILVIYGKNDRPSGIPDRFSGSNSGNTASLTITGAQAEDEADYYCNSRDSSGNHRVFGGGTKVTVL",23.8,19.2,0.396,–,–
"ADI-14423 (antibody, V domains shown, also called Ab 89) VH: EVQLVESGGVVIQPGGSLRLSCAASGFNFDDYSMHWVRQAPGKGLEWVSLISWDGGITYYADSVKGRFTISRDNGKKSLYLQMNSLRTEDTALYYCAKDIDIYSDYAGYFDYWGQGTLVTVSS VL: DIRMTQSPSSLSASVGDRVTITCRASQGIRNDLGWYQQKPGKAPKRLIYAASSLQSGVPSRFSGSGSGTEFTLTISSLQPEDFATYYCLQHNSYPFTFGQGTRLEIK",9.65,3.4,–,no binding,–
"ADI-14410 (antibody, V domains shown, also called Ab 76) VH: QVQLQQWGAGLLKPSETLSLTCAIYSGSFSGYYWSWIRQPPGKGLEWIGQINYSGSAYYTPSLKSRVTISVDTSKNQFSLKLSSVTAADTAVYYCARVRITMVQGAIVPCAIDVWGQGTTVTVSS VL: SYELTQPPSASGTPGQRVTISCSGSSSNIESNFVYWYQQLPGTAPKLLIHRNDQRPSGVPDRFSGSKSGTSASLAISGLRSEDEADYSCAAWDDSLSGVVFGGGTKVTVL",3.77,17.1,–,no binding,–
"ADI-14411 (antibody, V domains shown, also called Ab 77) VH: QVQLVQSGAEVKKPGASVKLSCKASGYTFTRFYIHWVRQAPGQGLEWMGIINPSGGGTSYAQNFQDRVTMTRDTSTSTVYMELSSLRSEDTAVYYCARNGYSTRSLQNNWFDPWGQGTLVTVSS VL: ETTLTQSPSSLSASVGDRVTITCRASQSIDNYLNWYQQKPGKAPKLLIYEASSLQSGVPSRFSGSGSGTDFTLTISSLQPEDFATYYCQQTYSSLPYTFGQGTKVEIK",6.12,3.92,–,no binding,–
"ADI-14414 (antibody, V domains shown, also called Ab 80) VH: QVQLVQSGAEVKKPGSSMKVSCKASGGSFSSYGISWLRQAPGQAPEWMGGIIPIFGTINYAQKFQGRITISADESTSTVYMELSSLRIEDTAVYYCARDGRTSPRYYGWDVWGQGTTVTVSS VL: DIRLTQSPATLSLSPGDRATLSCRASQSLYTYLSWYQQKPGQAPRLLIYDASNRATGIPARFSGSGSGTDFTLTISSLEPEDFAVYYCHYRSNWPPCTFGGGTKVDIK",5,3.07,–,no binding,–
"ADI-14409 (antibody, V domains shown, also called Ab 75) VH: QVQLVQSGGEVKKPGASVKVSCKASGYTFTYYGISWVRQAPGQGLEWMGWISAYNGNTNYEQKFQGRVTMTTDTSTGTAYMELRSLTSDDTAVYYCARDRIVVVTAANYYGLDVWGQGTTVTVSS VL: not shown",0.15,0.289,–,no binding,–
"ADI-21010 (antibody, V domains shown) VH: EVQLVESGGGVVQPGRSLRLSCAASGFSFSTYGMHWVRQAPGKGLEWVGVIWYDETTKYYADSVKGRFSISRDNSKNMVYVQMNSLRADDTALYYCAREVWGGVFDIWGQGTTVTVSS VL: DIQMTQSPATLSASVGDRVTITCRASQNIVTWLAWYQQKPGKAPNLLIYKASSLESGVPSRFSGSGSGTEFTLTISSLQPDDFATYYCQHYNSYSGAFGQGTKVDIK",3.58,–,–,no binding,–

# Source: US20260258115A1 (MAPP BIOPHARMACEUTICAL, published 2026)
